{"source": "paper PMC10638201", "about": "“Application of electrospun chitosan-based nanofibers as immobilization matrix for biomolecules” (Applied Microbiology and Biotechnology, 2023)", "proteins": {"B1": {"name": "eugenol oxidase (EUGO); 6xHis-eugenol-oxidase-StrepTag-II (Rhodococcus jostii RHA1) (protein)", "chain": "MTRTLPPGVSDERFDAALQRFRDVVGDKWVLSTADELEAFRDPYPVGAAEANLPSAVVSPESTEQVQDIVRIANEYGIPLSPVSTGKNNGYGGAAPRLSGSVIVKTGERMNRILEVNEKYGYALLEPGVTYFDLYEYLQSHDSGLMLDCPDLGWGSVVGNTLDRGVGYTPYGDHFMWQTGLEVVLPQGEVMRTGMGALPGSDAWQLFPYGFGPFPDGMFTQSNLGIVTKMGIALMQRPPASQSFLITFDKEEDLEQIVDIMLPLRINMAPLQNVPVLRNIFMDAAAVSKRTEWFDGDGPMPAEAIERMKKDLDLGFWNFYGTLYGPPPLIEMYYGMIKEAFGKIPGARFFTHEERDDRGGHVLQDRHKINNGIPSLDELQLLDWVPNGGHIGFSPVSAPDGREAMKQFEMVRNRANEYNKDYAAQFIIGLREMHHVCLFIYDTAIPEAREEILQMTKVLVREAAEAGYGEYRTHNALMDDVMATFNWGDGALLKFHEKIKDALDPNGIIAPGKSGIWSQRFRGQNL", "notes": "N-terminal His6 tag and C-terminal Strep-tag II, tags kept; gene from vector pEUGOA cloned into pET-28a(+) (pET-28-eugo-STII); E. coli BL21 (DE3) gold; Ni Sepharose purified; dimer, theoretical 124 kDa"}}, "substrate": "COc1cc(CO)ccc1O", "test": "purified protein", "type": "biochemical, Rhodococcus jostii", "conditions": "free EUGO, O2 as co-substrate (air), ambient conditions, 50 mM Glycine·NaOH buffer, pH 8.0, N = 1, called preliminary", "data": [{"protein": "B1", "values": [{"measurement": "Km", "value": "80 ± 20", "unit": "µM"}, {"measurement": "kcat", "value": "5 ± 1", "unit": "s⁻¹"}]}]}
